# Experimental data: paper PMC12339945
# B1: HIV Tat RNA aptamer (unlabeled) (structured_RNA)
# RNA: GGGAGCUUGAUCCCGGAAACGGUCGAUCGCUCCC
# Target: HIV-1 Tat (E. coli, purified) (HIV-1, UniProt P12506)
# Assay: NMR titration (1D 1H imino)
# Details: protein: recombinant; tags: N-terminal His6, stated as cleaved after purification
binder,measurement,value
B1,binding result,binds
